Reference: patent US20070065819A1 (Takeda / Millennium, published 2007)
One block for each binder: values may come before it. Where no end group is shown, it is not given here. The star is where a group is joined. For = O=C*

Biological target: T1, human FPRL1 (human, UniProt P25090 1-351)
T1 construct: Expressed in CHO cells (No. 8); also called human-derived FPRL1
T1 sequence: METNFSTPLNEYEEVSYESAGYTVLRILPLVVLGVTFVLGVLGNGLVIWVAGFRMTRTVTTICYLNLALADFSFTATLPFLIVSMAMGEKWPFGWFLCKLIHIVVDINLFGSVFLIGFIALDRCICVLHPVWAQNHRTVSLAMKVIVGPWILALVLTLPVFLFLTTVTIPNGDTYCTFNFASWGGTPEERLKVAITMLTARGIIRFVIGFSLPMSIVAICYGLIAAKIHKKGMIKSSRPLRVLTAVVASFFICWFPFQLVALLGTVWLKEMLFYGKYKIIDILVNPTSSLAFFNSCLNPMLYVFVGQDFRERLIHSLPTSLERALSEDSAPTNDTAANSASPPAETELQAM
Test: competitive inhibition of binding of 125I-labeled compound to membrane fraction of human FPRL1-expressing CHO cells, filter trapping
Method: Then, by reverse phase HPLC using TSKgel ODS-80TM CTR 4.6 x 100 mm column, a peak of labeled form, which was produced by the reaction, was fractionated. The fraction was mixed with an equal volume of assay buffer (50 mM Tris-HCI/pH7.5, 5 mM EDTA, 0.5 mM PMSF, 20 μg/ml leupeptine, 0.1 μtg/ml pepstatin A, 4 μg/ml E-64 (Peptide Institute), and 0.1% bovine serum albumin) and stored at −30° C. until use.
Human FPRL1-expressing CHO cells (No. 8) were cultivated, collected using PBS containing 5 mM EDTA from culture vessel, and suspended in assay buffer containing no bovine serum albumin, which is described above. Homogenization using Polytron homegenizer (Kinematica) at 18,000 rpm for 40 seconds was performed three times. After centrifugation (1000xg, 4° C., 10 minutes), supernatant was recovered. […]
Competitive inhibition test was carried out under the following conditions. […] After completely drying the filter, Microcinti 0 (Packard) was added to the filter, and a level of labeled form co-trapped with the membrane fraction on the filter was measured using Topcount (Pakard). Non-specific binding level was subtracted from each measured value. Then the ratio of reduced binding level by addition of test sample to the well with notest sample (total binding level), that is, the inhibition rate was calculated. Further, from dosage of test sample-inhibition curve, IC₅₀ was calculated (Table 1).

- IC50: 1.1 nM
B1: human FPRL1 ligand P3 (hfCYOX-1(1-13)) (peptide)
peptide: For-MFADRWLFSTNHK
notes: Synthesized at Peptide Institute, Inc; also called human FPRL ligand P3

- IC50: 0.15 nM
B2: porcine FPRL1 ligand P3 (pfCYOX-1(1-13)) (peptide)
peptide: For-MFVNRWLYSTNHK
notes: The purified fraction also held a Met(O) oxidant; also called porcine FPRL ligand P3; porcine intrinsic FPRL1 ligand P3
